Results published in patent US20040018529A1, “Functional cloning of genes encoding proteins/enzymes involved in proteolytic cleavage” (priority 1999, published 2004).
Peptide text beside a SMILES is read from it. * marks the point of attachment. Cbz = O=C(OCc1ccccc1)*; CH2F = FC*

Assays:
[1] = molecular target: modified caspase-3 containing the β-secretase cleavage site of APP of the Swedish version (expressed from plasmid pCBC1) (human); assay: cell-based or functional assay
293T cells = assay: Apoptosis assay by visual inspection of transfected cells; type: cell-based, Human
Method: Apoptosis assays 293T cells were seeded onto 60 mm dishes at a density of 1.5×10^6 cells and, the next day, were transiently transfected with 2.5 μg plasmid DNA mixed with 15 μl lipofectamin reagent (Life Technologies, Grand Island, N.Y.). Twenty-four or 48 h after transfection, cell death was analyzed by one of the following methods. For the first assay, apoptosis was quantitated by visual inspection of cells. Cells with a shrunken, rounded, detached or blebbed appearance were scored as apoptotic. Usually 3 or more random fields were photographed and counted, and each field contained at least several hundred cells. In the case of co-transfection with green fluorescent protein (GFP)-expressing plasmid, cells were examined with an inverted fluorescent microscope, and only green cells with apoptotic features were counted. The second apoptotic assay used was the detection of nucleosomal ladder in apoptotic cells using ApoAlert LM-PCR ladder assay kit from Clontech. The procedure recommended by Clontech was followed.

modified caspase-3 = assay: Western blot analysis of processing of the modified caspase-3; type: cell-based, Human; settings: 293T cells, co-transfection with pCBC1, compared with the control
Excerpt: Western blot analysis Cells were collected in PBS and immediately lysed by the addition of an equal volume of 2×SDS loading buffer. After boiling and centrifugation, supernatants containing equal amount of proteins were loaded onto 14% SDS-PAGE gels. The proteins were resolved and transferred to a nylon membrane, and probed with antibodies against human caspase-3 (Santa Cruz Biotech, Santa Cruz, Calif.).

β-secretase = assay: β-NTF assay (ELISA of medium of transfected 293T cells); type: cell-based, Human; settings: co-transfection with the APP expression plasmid, 48 h
Method: β-NTF assay 293T cells were seeded onto 60 mm dishes at a density of 1.5×10^6 cells and, the next day, were transiently transfected with 2.5 μg plasmid DNA mixed with 15 μl lipofectamin reagent (Life Technologies, Grand Island, N.Y.). In the case of transfection with pAPPsw plasmid, 0.5 μg pAPPsw was mixed with 2.0 μg carrier plasmid (unrelated plasmid). Twenty-four or 48 h after transfection, medium was collected and determined for […] by ELISA method as described [Liu, 2000]

caspase-3 = assay: Caspase-3 activity assay (ApoAlert CPP32/Caspase-3 Fluorescent Assay kit); type: cell-based, Human; settings: 293T cells, co-transfection with pCBC1, compared with controls
Excerpt: The protease activity of the caspase is also directly monitored in the cell extracts prepared as above. The ApoAlert® Caspase-3 assay kit, available commercially from Clontech, allows convenient fluorometric or colorimetric detection and assay of caspase-3. For example, the fluorescent kit detects the emission shift of 7-amino-4-trifluoromethyl coumarin (AFC). The AFC-substrate conjugate, DEVD-AFC, usually emits blue light (λmax=400 nm). However, upon proteolytic cleavage of the substrate by Caspase-3, free AFC fluoresces yellow-green (λmax=505 nm). Thus monitoring of emission at 505 nm in the cell extract, in relation to the uninduced control extract, allows determination of caspase activity. The activity can also be quantitated accurately and reproducibly using a standard curve established with free AFC. As described above, if there is endogenous expression of enzyme X in these cells, the caspase activity is generated in cells transfected only with pCTC1 (+) but not with pCTC1 (−).
Caspase-3 activity assay Caspase-3 activity was determined following the instructions of ApoAlert CPP32/Caspase-3 Fluorescent Assay kit (Clontech).

Row | Molecule | caspase-3 activity in transfected 293T cells (caspase-3 fluorescent assay), over mock-transfected cells, 24 and 48 h [1] | cell death caused by transfection of pCBC1 plasmids (293T cells; 10 μM inhibitor added immediately after DNA transfection) | processed caspase-3 fragment (12 kDa) (modified caspase-3) | generation of β-NTF (β-secretase) | number of apoptotic cells / cell death caused by the modified caspase-3 (293T cells; co-transfection with pCBC1, compared with controls) | caspase-3 activity (caspase-3)
1 | endogenous β-secretase activity of human embryonic kidney 293T cells (enzyme) | 10 fold |  |  |  |  | 
2 | COC(=O)C[C@H](NC(=O)[C@H](C)NC(=O)[C@@H](NC(=O)OCc1ccccc1)C(C)C)C(=O)CF [Z-VAD.fmk, reference compound] (Cbz-Val-Ala-Asp(OMe)-CH2F) |  | significantly prevented cell death |  |  |  | 
3 | BACE2: BACE2 expression plasmid; BACE2 competes in vivo with β-secretase for β-site APP cleavage (protein, UniProt Q9Y5Z0 63-518, looked up) Beta-secretase 2: ALEPALASPAGAANFLAMVDNLQGDSGRGYYLEMLIGTPPQKLQILVDTGSSNFAVAGTPHSYIDTYFDTERSSTYRSKGFDVTVKYTQGSWTGFVGEDLVTIPKGFNTSFLVNIATIFESENFFLPGIKWNGILGLAYATLAKPSSSLETFFDSLVTQANIPNVFSMQMCGAGLPVAGSGTNGGSLVLGGIEPSLYKGDIWYTPIKEEWYYQIEILKLEIGGQSLNLDCREYNADKAIVDSGTTLLRLPQKVFDAVVEAVARASLIPEFSDGFWTGSQLACWTNSETPWSYFPKISIYLRDENSSRSFRITILPQLYIQPMMGAGLNYECYRFGISPSTNALVIGATVMEGFYVIFDRAQKRVGFAASPCAEIAGAAVSEISGPFSTEDVASNCVPAQSLSEPILWIVSYALMSVCGAILLVLIVLLLLPFRCQRRPRDPEVVNDESSLVRHRWK |  |  | significantly reduced | significantly inhibited the generation of β-NTF | significantly reduced the number of apoptotic cells | lower caspase-3 activity than the controls
4 | BACE2(D110A): catalytically inactive mutant of BACE2, expressed from plasmid (protein) APELAPAPFTLPLRVAAATNRVVAPTPGPGTPAERHADGLALALEPALASPAGAANFLAMVDNLQGDSGRGYYLEMLIGTPPQKLQILVATGSSNFAVAGTPHSYIDTYFDTERSSTYRSKGFDVTVKYTQGSWTGFVGEDLVTIPKGFNTSFLVNIATIFESENFFLPGIKWNGILGLAYATLAKPSSSLETFFDSLVTQANIPNVFSMQMCGAGLPVAGSGTNGGSLVLGGIEPSLYKGDIWYTPIKEEWYYQIEILKLEIGGQSLNLDCREYNADKAIVDSGTTLLRLPQKVFDAVVEAVARASLIPEFSDGFWTGSQLACWTNSETPWSYFPKISIYLRDENSSRSFRITILPQLYIQPMMGAGLNYECYRFGISPSTNALVIGATVMEGFYVIFDRAQKRVGFAASPCAEIAGAAVSEISGPFSTEDVASNCVPAQSLSEPILWIVSYALMSVCGAILLVLIVLLLLPFRCQRRPRDPEVVNDESSLVRHRWK |  |  | significantly reduced | significantly inhibited the generation of β-NTF |  | lower caspase-3 activity than the controls
